In patent US20150098946A1 (Genentech, published 2015) one finds Kd data, which are given here for 8 molecules.

In the assay the target is T1, TAT194 polypeptide as used in the BIAcore analysis (human, UniProt P07949 29-635, limits assumed).
T1 construct: The construct used for the BIAcore analysis (extracellular domain, tag, fusion, isoform) is not described; also called RET
Nature of the assay: standard BIAcore analysis.

B1: anti-TAT194 monoclonal antibody R4208 (antibody, V domains shown)
VH: QVHLQQSGSELRSPGSSVKLSCKDFDSEVFPIAYMSWVRQKPGHGFEWIGDILPNIGRTIYGEKFEDKATLDADTVSNTAYLELNSLTSEDSAMYYCGRSITRAWFAYWGQGTLVTVSV
VL: DIQMTQSPSSLSASLGERVSLTCRASQEISGYLSWFQQKPDGTIKRLIYAASTLDSGVPKRFSGSRSGSDYSLTISSLASEDFADYFCLQYAGNPFTFGSGTKLEIKR
notes: Monoclonal antibody from a mouse hybridoma; kappa VL
With B1, the Kd came to 1.25 nM.

B2: anti-TAT194 monoclonal antibody R4203 (antibody, V domains shown)
VH: EVQLQQSGPELVKPGASMKISCKASGYSFTGFTMNWVKQSHGKNLEWIGLINPYNGVTNYNQKFRGKATLTVDESSSTAYMDLLSLTSEDSAVYYCARHYSFAMDYWGQGTSVTVSS
VL: DIVLTQSPASLAVSLGQRATISCRASESVDGYGSSFMHWYQQKPGQPPKLLIYRTSNLESGIPARFSGSGSTTDFTLTINPVEADDVATYYCQQNSEDRTFGGGTKLEIKR
notes: as for B1
Consider B2, for which the Kd came to 0.1 nM. Against the preceding molecule, the Kd is about 12-fold lower.

B3: anti-TAT194 monoclonal antibody R4204 (antibody, V domains shown)
VH: QVQLQQSGAELAKPGTSVKMSCKASGYTFTTYWMHWIKQRPGQGLEWIGYINPSTGYSEYNQKFKDKATLTADRSSSTAYMQLSSLTSEDSTVYYCARWRFYGSTYGMDYWGQGTSVTVSS
VL: QIVLTQSPALMSAFPGEKVTLTCSASSSVTYMYWYQQKPRSSPKPWIYLTSKLASGVPSRFSGSGSGTSFSLTITSMEAEDAATYYCQQWTGNPLTFGAGTKLELKR
notes: as for B1
Molecule B3 came in with a Kd of 169 nM.

B4: anti-TAT194 monoclonal antibody R4212 (antibody, V domains shown)
VH: DVQLQESGPGLVAPSQSLSITCTVSGFSLSRYSVHWVRQPPGKGLEWLGMIWLGGSTDYNSALKSRLSISKDISKSQVFLKMNSLQTDDTAMYYCARNLDSRGFAHWGQGTLVTVSA
VL: DVLMTQTPLSLPVSLGDQASISCRSSQSIVHSNGNTYLEWYLQKPGQSPKLLIYKVSNRFSGVPDRFSGSGSGTDFTLKISRVEAEDLGVYYCFQGSHVPPTFGGGTKLEIKR
notes: as for B1
In the case of B4, the Kd was determined as 105 nM.

B5: anti-TAT194 monoclonal antibody R4209 (antibody, V domains shown)
VH: EVNLEESGGGLVQPGGSMKLSCVASGFTFSNYWMNWVRQSPEKGLEWVADISLKSNNYGTHYAESVNGRFTISRDDSTSSVYLQMNNLRAEDTGIYYCAVYYYGVKFYYFVLGYWGQGTSVTVSS
VL: DIVMTQSHKFMSTSVGDRVSITCKASQDVSTAVAWYQQKPGQSPKLLIYWGSTRHTGVPDRFTGVGSGTDYSLTISSVQAEDLALYYCQQHYNIPWTFGGGTKLEIKR
notes: as for B1
In turn, B5 displayed a Kd of 2.55 nM.

B6: anti-TAT194 monoclonal antibody R4205 (antibody, V domains shown)
VH: QVQLKESGPGLVKPSQSLSLTCTVTGYSITSDYVWNWIRQFPGNKLEWMGYIHYSGGTSYNPSLKSRISITRDTSKNQFFLHLNSLTTEDTATYYCARGNYDWAFAYWGQGTLVTVSA
VL: DVQITQSPSYLAASPGETITINCRASKSISKYLAWYQDKPGKTNKLLISSGSTLQSGIPSRFSGSGSGADFTLTISSLEPEDFAMYYCQQHNEYPWTFGGGTKLEIKR
notes: Monoclonal antibody from a mouse hybridoma; kappa VL; also called anti-RET murine monoclonal antibody clone 4205
Molecule B6 gave a Kd of 0.18 nM.

B7: anti-TAT194 monoclonal antibody R4206 (antibody, V domains shown)
VH: DVQLQESGPGLVKPSQSLSLTCTVTGFSITSDYAWNWIRQFPGNKLEWMAYITYSGDTGYNPSLKSRISVTRDTSKNQFFLQLSSVTTEDTATYYCARGNYDWVFAYWGQGTLVTVSA
VL: DVQITQSPSYLAASPGETITINCRASKSISKYLAWYQEKPGKTNKLLIYSGSTLQSGIPSRFSGSGSGTDFTLTISSLEPEDFAMYYCQQYIEYPWTFGGGTKLEIKR
notes: as for B1
On to B7, for which the dissociation constant Kd is 0.34 nM. This Kd is about 1.9-fold higher than that of the molecule before.

B8: anti-TAT194 monoclonal antibody R4207 (antibody, V domains shown)
VH: DVQLQESGPGLVKPSQSLSLTCTVTGFSITSDYAWNWIRQFPGNKLEWMAYITYSGDTGYNPSLKSRISVTRDTSKNQFFLQLSSVTTEDTATYYCARGNYDWVFAYWGQGTLVTVSA
VL: DVQITQSPSYLAASPGETITINCRASKSISKYLAWYQEKPGKTNKLLIYSGSTLQSGIPSRFSGSGSGTDFTLTISSLEPEDFAMYYCQQYIEYPWTFGGGTKLEIKR
notes: as for B1
For the molecule B8, the equilibrium dissociation constant (Kd) came out at 0.54 nM. This Kd lies about 1.6-fold higher than the previous one.
